Measurements: PMC12613123, “Fabrication of Disposable Thin-Film Electrodes via Shadow Mask Technique for Sensitive Point-of-Care Detection of C‑Reactive Protein, a Sepsis Biomarker”

Target: T1, C-reactive protein (CRP) (UniProt P02741 19-224)
T1 sequence: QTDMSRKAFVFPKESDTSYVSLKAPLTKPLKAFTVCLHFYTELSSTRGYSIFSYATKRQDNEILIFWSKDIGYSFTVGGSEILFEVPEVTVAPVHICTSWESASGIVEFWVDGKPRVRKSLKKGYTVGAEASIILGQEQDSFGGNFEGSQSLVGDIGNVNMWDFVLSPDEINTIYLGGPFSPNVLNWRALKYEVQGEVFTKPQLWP
Assay: electrochemical aptasensor (CV, EIS); aptamer/MCH on gold thin-film electrode; ferro-/ferricyanide; CRP 0.02-0.9 ng/mL; Rct 1.78 to 2.8 kOhm; LOD 6.5 pg/mL (not a Kd); ferro-/ferricyanide redox couple; buffer, salt, pH and temperature not given in the held text (aptamer immobilization at 2-4 C)
Settings: chain copies: 5

B1: CRP aptamer (44 nt) (ssDNA)
DNA: GCCTGTAAGGTGGTCGGTGTGGCGAGTGTGTTAGGAGAGATTGC
modifications: 5' HO-(CH2)6-S-S-(CH2)6 thiol linker (TCEP reduced), immobilized on gold with MCH backfill
binding result: binds
